The experiment concerns the target receptor CCR1 (UniProt P32246). Put plainly: cell-based or functional assay.
UniProt P32246, sequence (P32246 whole entry): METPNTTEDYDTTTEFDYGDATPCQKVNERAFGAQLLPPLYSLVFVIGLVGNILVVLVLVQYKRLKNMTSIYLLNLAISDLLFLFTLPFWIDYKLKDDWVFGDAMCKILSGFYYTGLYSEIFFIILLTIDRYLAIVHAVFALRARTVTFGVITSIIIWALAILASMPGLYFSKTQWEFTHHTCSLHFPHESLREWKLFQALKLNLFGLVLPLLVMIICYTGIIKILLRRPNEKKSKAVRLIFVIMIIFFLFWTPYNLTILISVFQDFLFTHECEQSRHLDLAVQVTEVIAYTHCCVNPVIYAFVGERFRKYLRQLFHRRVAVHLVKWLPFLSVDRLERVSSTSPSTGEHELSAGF

Regarding “CCL3 (D27A, Δ1, CCL3α) (from UniProt P10147 24-92) (ligand)”, the reactivity of the CCR1 receptor (Tango CCR1-bla U20S reporter cells, Blue/Green Emission ratio) was 0.63 nM.

The values are drawn from patent US20190153055A1.
